Assays:
Test in all cases: IEDB peptide-MHC binding, purified MHC/competitive/radioactivity; filed as Kd, often an IC50 or EC50 that approximates it; ≥ and ≤ were set here for values at or beyond the usual limits of such assays
HLA-B*40:01 = settings: source organism: Dengue virus 1 Nauru/West Pac/1974
HLA-B*44:02 = settings: source organism: Dengue virus 1 Nauru/West Pac/1974
HLA-B*44:03 = molecular target: HLA-B*44:03
HLA-A*26:01 = molecular target: HLA-A*26:01
HLA-A*29:02 = molecular target: HLA-A*29:02
HLA-A*30:02 = molecular target: HLA-A*30:02
HLA-A*24:02 = molecular target: HLA-A*24:02
HLA-A*01:01 = molecular target: HLA-A*01:01
HLA-A*23:01 = molecular target: HLA-A*23:01
HLA-B*07:02 = settings: source organism: Dengue virus 1 Brazil/97-11/1997
HLA-A*30:01 = settings: source organism: Mammarenavirus brazilense
HLA-A*32:01 = settings: source organism: Mammarenavirus brazilense
HLA-A*02:06 = settings: source organism: Vaccinia virus WR
HLA-A*02:02 = settings: source organism: Vaccinia virus WR
HLA-B*08:01 = settings: source organism: Vaccinia virus WR
HLA-A*02:03 = settings: source organism: Vaccinia virus WR
[1] = source organism: SARS coronavirus Tor2
[2] = source organism: Mammarenavirus lassaense
[3] = source organism: Mammarenavirus guanaritoense
[4] = source organism: Mammarenavirus brazilense

Sequence | Kd (HLA-A*26:01; [1]) | Kd (HLA-A*29:02; [1]) | Kd (HLA-A*30:02; [1]) | Kd (HLA-A*24:02; [1]) | Kd (HLA-A*01:01; [1]) | Kd (HLA-A*23:01; [1]) | other results
AEPPFGESYI |  |  |  |  |  |  | Kd (HLA-B*40:01): 0.183 µM; Kd (HLA-B*44:02): 0.596 µM; Kd (HLA-B*44:03; source organism: Dengue virus 1 Nauru/West Pac/1974): 0.877 µM
AFRDVLVVL | 13 µM | 14 µM | 9.83 µM | 6.82 µM | 15.9 µM | 1.97 µM | 
AGFSAGLTY |  |  |  |  |  |  | Kd (HLA-A*26:01; [2]): ≥ 77.9 µM; Kd (HLA-A*29:02; [2]): 0.0636 µM; Kd (HLA-A*30:02; [2]): 0.528 µM; Kd (HLA-A*24:02; [2]): ≥ 77.5 µM; Kd (HLA-A*01:01; [2]): ≥ 23.9 µM; Kd (HLA-A*23:01; [2]): ≥ 43.8 µM
AGPFSQHNY |  |  |  |  |  |  | Kd (HLA-A*30:02; source organism: Dengue virus 4 Philippines/H241/1956): 0.472 µM
APHVGLGLET |  |  |  |  |  |  | Kd (HLA-B*07:02): 1.16 µM
ASLGPLRETY | ≥ 81.5 µM | 0.557 µM | 0.154 µM | ≥ 70.3 µM | ≥ 114 µM | ≥ 70 µM | 
AYEHKNRSRL |  |  |  |  |  |  | Kd (HLA-A*29:02; [3]): ≥ 20.9 µM; Kd (HLA-A*24:02; [3]): ≥ 26.5 µM; Kd (HLA-A*23:01; [3]): 10.2 µM
AYSFLPGVY | 6.39 µM | 0.00452 µM | 0.000267 µM | 0.0308 µM | 6.52 µM | 7.4 µM | 
DYDCVSFCY | 17.6 µM | 0.145 µM | 1.4 µM | ≥ 20.2 µM | ≥ 58 µM | ≥ 20.9 µM | 
DYSVLYNSTF | 4.22 µM | 2.54 µM | ≥ 60.4 µM | 0.0242 µM | ≥ 70.4 µM | 0.159 µM | 
EALRGFLLY |  |  |  |  |  |  | Kd (HLA-A*26:01; [4]): 1.58 µM; Kd (HLA-A*29:02; [4]): 0.117 µM; Kd (HLA-A*30:01): 5.72 µM; Kd (HLA-A*30:02; [4]): 2.27 µM; Kd (HLA-A*32:01): ≥ 60.2 µM; Kd (HLA-A*01:01; [4]): 3.73 µM
EALYYVHSL |  |  |  |  |  |  | Kd (HLA-A*02:06): 14.8 µM; Kd (HLA-A*02:02): 14.2 µM; Kd (HLA-B*08:01): 0.00211 µM; Kd (HLA-A*02:03): 5.77 µM
EEVQVLALEP |  |  |  |  |  |  | Kd (HLA-B*44:03; source organism: Dengue virus 2 Jamaica/1409/1983): ≥ 23.4 µM
ELCEDTMTY |  |  |  |  |  |  | Kd (HLA-A*26:01; source organism: Dengue virus 1 Brazil/97-11/1997): 1.74 µM

From the Immune Epitope Database (IEDB)
